# Positions count from the first letter of the chain named. Names may count otherwise.
# T1: human CD73 on cells (human, UniProt P21589 27-549)
# T1 sequence: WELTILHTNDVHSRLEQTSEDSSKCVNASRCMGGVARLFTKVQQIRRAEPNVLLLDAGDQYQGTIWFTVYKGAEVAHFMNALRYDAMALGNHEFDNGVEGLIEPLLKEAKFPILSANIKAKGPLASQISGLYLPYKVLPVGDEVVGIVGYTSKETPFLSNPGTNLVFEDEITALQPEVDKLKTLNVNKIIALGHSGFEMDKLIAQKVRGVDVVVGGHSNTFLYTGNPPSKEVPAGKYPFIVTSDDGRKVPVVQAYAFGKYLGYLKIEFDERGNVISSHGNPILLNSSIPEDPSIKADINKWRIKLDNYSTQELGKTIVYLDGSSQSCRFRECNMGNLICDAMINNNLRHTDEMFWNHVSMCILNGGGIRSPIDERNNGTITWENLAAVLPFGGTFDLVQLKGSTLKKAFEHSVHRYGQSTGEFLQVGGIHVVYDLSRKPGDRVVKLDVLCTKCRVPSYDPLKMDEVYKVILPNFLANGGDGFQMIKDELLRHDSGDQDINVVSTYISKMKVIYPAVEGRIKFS
# T2: recombinant human CD73 protein (form not stated) (human, UniProt P21589 27-549)
# T2 construct: also called huCD73; rCD73
# T2 sequence: T1 sequence
# B1: CD730010 antibody (antibody, IgG1, V domains shown)
# VH: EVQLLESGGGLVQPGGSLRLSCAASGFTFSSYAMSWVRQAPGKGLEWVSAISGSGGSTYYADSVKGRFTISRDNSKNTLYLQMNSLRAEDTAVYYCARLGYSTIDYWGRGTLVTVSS
# VL: LPVLTQPPSVSGTPGQRVTISCSGSLSNIGRNPVNWYKQVPGTAPKLLIYLNNQRPSGVPDRFSGSKSGTSASLAISGLQSEDEADYYCATWDDSLNGWLFGGGTKLTVL
# notes: IgG1; tested as IgG1-TM (L234F, L235E, P331S); also called clone 10
# B2: CD730002 antibody (antibody, IgG1, V domains shown)
# VH: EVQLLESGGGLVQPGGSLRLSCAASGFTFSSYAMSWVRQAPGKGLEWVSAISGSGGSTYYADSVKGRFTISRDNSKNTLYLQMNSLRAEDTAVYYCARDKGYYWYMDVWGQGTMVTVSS
# VL: QSVLTQPPSVSVSPGQTATITCSGDKVGDKYASWYQQKPGQSPVLVIYEDTKRPSRIPERFSGSNSGNTATLTISGTQALDEADYFCQAWDTSFWVFGGGTKLTVL
# notes: IgG1; tested as IgG1-TM; also called clone 2
# B3: CD730002 2C5 (antibody, IgG1, V domains shown)
# VH: EVQLLESGGGLVQPGGSLRLSCAASGFTFSSYAMSWVRQAPGKGLEWVSAISGSGGSTYYADSVKRRFTISRDNSKNTLYLQMNSLRAEDTAVYYCARDKGYYWYMDVWGQGTMVTVSS
# VL: B2 VL with T19S, P54L, R56G, L80M, F86Y
# notes: IgG1; also called clone 2C5 antibody
# B4: 73combo1 (C1 + GRVE + HPT) (antibody, IgG1, V domains shown)
# VH: EVQLLESGGGLVQPGGSLRLSCAASGFTFSSYAYSWVRQAPGKGLEWVSAISGSGGSTYYADSVKGRFTISRDNSKNTLYLQMNSLRAEDTAVYYCARLGYGRVDEWGRGTLVTVSS
# VL: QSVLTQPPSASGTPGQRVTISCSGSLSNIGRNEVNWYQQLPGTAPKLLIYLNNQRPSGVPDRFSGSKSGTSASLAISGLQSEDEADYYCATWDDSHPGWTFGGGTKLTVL
# notes: also called clone 10 combo1
# B5: C1 (antibody, IgG1, V domains shown)
# VH: B4 VH with G102S, R103T, V104I, E106K
# VL: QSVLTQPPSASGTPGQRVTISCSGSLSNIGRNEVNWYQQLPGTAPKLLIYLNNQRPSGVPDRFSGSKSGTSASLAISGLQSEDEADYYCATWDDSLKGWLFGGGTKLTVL
# notes: also called clone 10 C1
# B6: CD730008 antibody (antibody, IgG1, V domains shown)
# VH: B4 VH with S7T, Y34M, L99G, G100N, R103N, V104L, E106H, R109K
# VL: B2 VL with T19S, E49Q, T51R, R56G, A79P, L80M, F86Y, T92S, F94H
# B7: 73combo5 (G10 + GRVE + HPT) (antibody, IgG1, V domains shown)
# VH: B4 VH with G55W, S57R
# VL: QSVLTQPPSASGTPGQRVTISCSGSLSNIGRNDVNWYQQLPGTAPKLLIYLNNQRLGGVPDRFSGSKSGTSASLAISGLQSEDEADYYCATWDDSHPGWTFGGGTKLTVL
# notes: also called clone 10 combo5
# B8: G10 (antibody, IgG1, V domains shown)
# VH: B4 VH with G55W, S57R, G102S, R103T, V104I, E106L
# VL: B7 VL with H96L, P97K, T100L
# notes: also called clone 10 G10
# B9: C2 (antibody, IgG1, V domains shown)
# VH: B4 VH with A50L, S52W, G55W, G102S, R103T, V104I, E106M
# VL: B7 VL with D33P, N52D, Q54L, H96L, P97K, T100L
# notes: also called clone 10 C2
# B10: 73combo2 (C2 + GRVE + HPT) (antibody, IgG1, V domains shown)
# VH: B4 VH with A50L, S52W, G55W
# VL: B7 VL with D33P, N52D, Q54L
# notes: also called clone 10 combo2
# B11: CD730004 antibody (antibody, IgG1, V domains shown)
# VH: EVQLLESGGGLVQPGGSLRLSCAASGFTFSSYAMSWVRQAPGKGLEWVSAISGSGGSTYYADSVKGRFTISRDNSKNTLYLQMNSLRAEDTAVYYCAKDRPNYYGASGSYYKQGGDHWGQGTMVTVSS
# VL: NFMLTQPHSVSESPGQTVTISCTRSSGSIASKYVQWYQKRPGSSPTTVIYEDTQRPSGVPDRFSGSIDISSNSASLTISGLRTEDEADYYCQSYDSTNWVFGGGTKVTVL
# notes: IgG1
# B12: CD730021 antibody (antibody, IgG1, V domains shown)
# VH: QVQLQESGPGLVRPSETLSLTCTVSGGSISSSSYYWAWVRQSPGKGLEWIGNIYYRGSTYYNPSLKSRVTMSVDMSKHQFSLKLSSLNAADTAVYYCASLYSGTYVFDYWGRGTLVTVSS
# VL: QSVLTQPPSASGTPGQRVTISCSGSRPNIGGNTVNWYQQLPGAAPKLLIYSNSQRPSGVPDRFSGSKYGTSASLAISGLQSDDEADYYCGTWDDSLNGPVFGRGTKLTVL
# notes: IgG1
# B13: CD730011 antibody (antibody, IgG1, V domains shown)
# VH: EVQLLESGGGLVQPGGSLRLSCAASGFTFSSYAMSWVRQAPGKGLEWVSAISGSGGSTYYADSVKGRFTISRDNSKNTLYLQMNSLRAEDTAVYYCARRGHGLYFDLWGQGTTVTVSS
# VL: NFMLTQPHSVSESPGKTVTISCTRSSGSIASKYVQWYQQRPGSSPMAVIYKDNQRSSGVPDRFSGSIDSSSNSASLTISGLKPEDEADYYCQSYDASNYYVFGTGTKVTVL
# notes: IgG1; also called CD7300011
# B14: CD730046 antibody (antibody, IgG1, V domains shown)
# VH: QVQLVQSGGGVVQPGRSLRLSCAASGFTFSSYGMHWVRQAPGKGLEWVAVISYDGSIKYYADSVKGRFTISRDNSKNSLFLQMNSLRDDDTATYYCARGHLLRIGDIFYYSLDVWGQGTLVTVSS
# VL: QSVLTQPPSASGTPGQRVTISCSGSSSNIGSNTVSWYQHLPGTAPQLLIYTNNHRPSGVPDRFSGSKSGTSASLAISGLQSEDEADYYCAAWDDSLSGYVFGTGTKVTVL
# notes: IgG1
# B15: CD730047 antibody (antibody, IgG1, V domains shown)
# VH: EVQLVQSGGGVVQPGRSLRLSCAASGFTFSSYGMHWVRQAPGKGLEWVAVISYDGSIKYYADSVKGRFAISRDNAKNTLYLQMNSLRREDTAMYYCASGLTGVAGALGVWGRGTLVTVSS
# VL: QSVLTQPPSASGAPGQRVTISCSGSSSNIGSNTVNWYQRLPGAAPQLLIYNNDQRPSGIPDRFSGSKSGTSGSLVISGLQSEDEADYYCAAWDDSLSGNVFGTGTKVTVL
# notes: IgG1
# B16: CD730042 antibody (antibody, IgG1, V domains shown)
# VH: GVQLVQSGGGLVQPGGSLRLSCAASGFTFSSYGMHWVRQAPGKGLEWVAVISYDGSIKYYADSVKGRFTISRDDSKNALYLQMNSLRAEDTAVYYCSTLSGSYGYFDYWGRGTLVTVSS
# VL: QSVLTQPASVSGSPGQSITISCAGTSSDVGGYNYVSWYQQHPGKAPKLMIYEGSKRPSGVSNRFSGSKSGNTASLTISGLQAEDEADYYCSSYTTRSTRVFGGGTKLTVL
# notes: IgG1
# B17: CD730010 GL10 (antibody, V domains shown)
# VH: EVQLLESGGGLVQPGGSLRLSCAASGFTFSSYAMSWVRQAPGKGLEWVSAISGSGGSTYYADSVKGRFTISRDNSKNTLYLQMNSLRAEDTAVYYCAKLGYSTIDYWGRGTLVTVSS
# VL: B1 VL
# Target: T1, human CD73 on cells
# Experiment: cell-based or functional assay
Binder,"FabZAP internalization, EC50, MDA-MB-231 [pM]","FabZAP internalization, max toxicity, MDA-MB-231 [%]"
B1,158,84

# Target: T3, cynomolgus CD73 extracellular domain (ECD) (cynomolgus)
# T3 construct: extracellular domain; also called Cynomolgus CD73 ECD; cyno CD73 (SPR Proteon)
# Experiment: SPR (Proteon), IgG1-TM
row,Binder,Kd [pM]
1,B2,15
2,B3,9
3,B4,8
4,B1,1920
5,B5,12

# Target: T1, human CD73 on cells
# Experiment: cell-based or functional assay
# Remark: another data set of the same source
row,Binder,"1/EC50, Enzyme Inhibition, MDA-MB-231 [nM⁻¹]"
1,B6,0.011

# Target: T4, cynomolgus CD73 on cells (cynomolgus)
# T4 construct: whole, on cells; also called native CD73 on MK-1 cells (cynomolgus)
# Experiment: flow cytometry on MK-1 cells, IgG1-TM
row,Binder,Kd [pM]
1,B2,52
2,B7,78
3,B3,63
4,B4,90
5,B8,258
6,B9,105
7,B5,160
8,B10,74

# Target: cynomolgus CD73 (form not stated) (cynomolgus)
# Experiment: Binding, Cyno; assay not described
row,Binder,1/EC50 [nM⁻¹]
1,B11,2e-06
2,B6,0.0011
3,B2,0.2
4,B12,0.0012
5,B13,0.0027
6,B1,0.0033
7,B14,0.01
8,B15,0
9,B16,0.0014

# Target: T2, recombinant human CD73 protein (form …)
# Experiment: assay and target not stated in Table 11 (taken as human CD73)
row,Binder,EC50 [pM]
1,B1,69000
2,B17,205000

# — patent US20160194407A1 (AstraZeneca / MedImmune, published 2016)
